B1: LINE1-full (parent)
chain: UACGUAGGUGGUUUUCCCCUGAUAGUGCUAAGGGGGCCUGGAAGUUUGGACUGGGCAGAGCUCAACACAGCGUGGCAAAGUGGCUGUGGCUAGACUGCCUCUCUGGAUUCCUCGUCACUCAGCAGGGCAUCUCUGAGAGAAAUGCC

Variants of: B1
Test: self-cleavage, relative activity (ratio to wild type); higher = more cleavage; in vitro, sequencing; the parent is a self-cleaving ribozyme

Row | Variant | self-cleavage
1 | U47C U115C | 2.06
2 | G48A A140G | 1.02
3 | A50G G82A | 1.04
4 | U47C A142G | 1.5
5 | U47C C128U | 1.42
6 | A50G U52C | 1.08
7 | A50G U52G | 0.18
8 | G49C A138G | 1.59
9 | G49A U134C | 0.75
10 | G49A U134A | 1.05
11 | C51U A77G | 2.03
12 | U52A | 1.34
13 | A50C C116U | 1.34
14 | A50G U104C | 1.08
15 | U47C U134A | 1.34
16 | A50G A121G | 1.11
17 | A50G A121U | 0.48
18 | U47C A140U | 0.6
19 | A50C U104A | 0.87
20 | G48U G88C | 0.04
21 | A50C U115C | 1.84
22 | G48A U102C | 1.94
23 | A50G A136U | 1.15
24 | A50G A136G | 1.04

Row | Variant | self-cleavage
25 | G48U U85A | 0.1
26 | G49U C98A | 0.04
27 | G48A G122A | 1.27
28 | C51U U134C | 1.74
29 | C51U U52C | 0.99
30 | U47G U96C | 0.21
31 | G49A A129G | 1.69
32 | G49A A129U | 1.46
33 | C51U U81C | 1.57
34 | G48C U91C | 1.05
35 | A50U G70C | 0
36 | C51U U62C | 0.05
37 | U47C A129G | 1.49
38 | U47C C111A | 1.79
39 | A50U A78G | 0.83
40 | A50G U130A | 0.83
41 | A50U A124G | 0.71
42 | U47C A121G | 1.92
43 | U47C A121U | 1.52
44 | U47C A121C | 1.05
45 | G48A A136G | 1.62
46 | U47C A69G | 0.44
47 | G49A U73C | 2.51
48 | U47G U81C | 0

Row | Variant | self-cleavage
49 | U47G U81A | 1.81
50 | G49A U87C | 0.21
51 | U52A A57U | 0.14
52 | U52A A57G | 0.89
53 | A50U A57G | 0.08
54 | A50G G53C | 0.13
55 | U47C U100A | 1.51
56 | A50G U134A | 0.68
57 | G48A A94G | 0.13
58 | G48A A94U | 0.18
59 | G48U U81A | 1.8
60 | A50C U81A | 1.76
61 | U47C C63U | 0.37
62 | A50G A78G | 0.53
63 | A50G A78U | 1.2
64 | C51U A69U | 0.04
65 | C51U A69G | 0.66
66 | A50G G83A | 0.28
67 | A50G A69G | 0.35
68 | A50G A69U | 0.1
69 | U47C G127A | 1.31
70 | U47C G127C | 1.23
71 | A50U A129G | 0.83
72 | A50U A129U | 1.12

Row | Variant | self-cleavage
73 | G49C A121G | 0.93
74 | A50G G127A | 0.68
75 | U47G A140U | 0.9
76 | U47G A140G | 0.71
77 | U47C G93U | 0.04
78 | G49A U96C | 0.03
79 | G49U G70A | 0.04
80 | G48A C63U | 0.36
81 | A50G U73G | 0.34
82 | A50G U73C | 1.31
83 | A50G U73A | 0.78
84 | U47C A77G | 2.3
85 | U47C A77U | 1.2
86 | G49U C71U | 0.71
87 | U47C G89A | 0.02
88 | A50U A142G | 1.01
89 | A50C C146U | 1.9
90 | A50C A65U | 0.31
91 | U47C U87A | 0.12
92 | A50U U115C | 1.17
93 | A50C A77U | 0.35
94 | G49C A141U | 1.55
95 | G49U U119C | 1.2
96 | U47G A79U | 2.35

Row | Variant | self-cleavage
97 | A50G C84U | 0.11
98 | U47G U73C | 2.66
99 | C51A A138G | 1.44
100 | U47C G53A | 1.78
101 | G48U A64G | 0.18
102 | A50C A121G | 2.3
103 | A50G C66A | 0.06
104 | A50G C66U | 0.08
105 | A50C A107G | 1.53
106 | A50G U87A | 0.03
107 | A50G U87G | 0.11
108 | A50G U87C | 0.14
109 | U47G G60A | 0.02
110 | U47G C146A | 1.22
111 | U47G C146U | 1.69
112 | G48A A69C | 0.02
113 | G48A A69G | 0.3
114 | A50G U132C | 1.07
115 | A50U C110A | 1.53
116 | G49A U119A | 1.15
117 | U47C C56U | 0.42
118 | A50G G126A | 0.41
119 | A50G G126U | 0.76
120 | G49A U81A | 1.95

Row | Variant | self-cleavage
121 | U47G U119A | 1.32
122 | U47G A136U | 1.53
123 | C51U G137U | 1.25
124 | G49A U91G | 0.04
125 | C51U A142U | 0.87
126 | C51U U85A | 0.09
127 | C51U U91A | 0.84
128 | A50G G54A | 0.16
129 | U47G U91C | 0.1
130 | U47C G126A | 1.84
131 | U47C G72A | 0.94
132 | A50G C68U | 0.1
133 | C51U U100C | 1.68
134 | A50G G80U | 0.35
135 | A50G G80A | 1.79
136 | U47C C118A | 0.46
137 | A50G G58C | 0.11
138 | U47G A142C | 1.25
139 | G49U C76U | 2.46
140 | G49U U91C | 0.46
141 | C51A U62A | 0.02
142 | U47G U85A | 0.05
143 | U47G U85C | 0.33
144 | A50U A141U | 0.68

Row | Variant | self-cleavage
145 | C51U A94G | 0.22
146 | C51A A141G | 1.75
147 | C51A U115C | 1.5
148 | A50U U91A | 0.34
149 | U47C U119A | 1.86
150 | G48U A129G | 1.23
151 | C51U U102C | 0.41
152 | U47C A64G | 0.31
153 | U47C A64U | 0.52
154 | A50U A59U | 0.67
155 | A50U G144A | 1.37
156 | A50U G144C | 0.79
157 | A50G U112C | 0.73
158 | C51U A65G | 0.05
159 | U47C U81C | 1.51
160 | G48A A117G | 1.47
161 | U47C A59G | 0.12
162 | U47C A59U | 0.6
163 | G48A G144U | 1.46
164 | A50G C56U | 0.06
165 | A50G C51U | 0.62
166 | C51U A59G | 0.09
167 | G49U A140U | 0.8

From the RNAGym collection of RNA variant scans (doi:10.7554/elife.90254)
